One assay has as its target T1, recombinant mouse TfR-1 (mouse, UniProt Q62351 89-763).
T1 construct: Bought recombinant protein; also called mTfR1
Nature of the assay: phage ELISA. Here is the method:
(§1) After the third round of selection, instead of pooling bacterial colonies, individual phagemid clones were grown in 1 ml of 2TY medium containing glucose and ampicillin in 96-well blocks and used to rescue the phages. After an overnight culturing, bacteria were spun down and an aliquot of the phage supernatant was sent for Sanger sequencing (Genewiz); VNAR CDR3 sequences were identified using BioEdit (a sequence alignment editor). Another aliquot was blocked with 2.5% milk for phage ELISAs. High-binding ELISA plates (Greiner) were coated with 1 μg/ml of recombinant human or mouse TfR-1. The plates were then blocked with 2.5% milk in PBST. Blocked phages were added to the blocked plates and the VNAR-phage clones binding to the antigens were detected with HRP-labelled anti-M13 coat protein antibodies (Sino Biological), and chromogenic TMB substrate (KLM)

The target in a further assay is T2, recombinant human TfR-1 (human, UniProt P02786 89-760).
T2 construct: extracellular domain; also called hTfR1; human transferrin receptor-1
T2 sequence (P02786 89-760): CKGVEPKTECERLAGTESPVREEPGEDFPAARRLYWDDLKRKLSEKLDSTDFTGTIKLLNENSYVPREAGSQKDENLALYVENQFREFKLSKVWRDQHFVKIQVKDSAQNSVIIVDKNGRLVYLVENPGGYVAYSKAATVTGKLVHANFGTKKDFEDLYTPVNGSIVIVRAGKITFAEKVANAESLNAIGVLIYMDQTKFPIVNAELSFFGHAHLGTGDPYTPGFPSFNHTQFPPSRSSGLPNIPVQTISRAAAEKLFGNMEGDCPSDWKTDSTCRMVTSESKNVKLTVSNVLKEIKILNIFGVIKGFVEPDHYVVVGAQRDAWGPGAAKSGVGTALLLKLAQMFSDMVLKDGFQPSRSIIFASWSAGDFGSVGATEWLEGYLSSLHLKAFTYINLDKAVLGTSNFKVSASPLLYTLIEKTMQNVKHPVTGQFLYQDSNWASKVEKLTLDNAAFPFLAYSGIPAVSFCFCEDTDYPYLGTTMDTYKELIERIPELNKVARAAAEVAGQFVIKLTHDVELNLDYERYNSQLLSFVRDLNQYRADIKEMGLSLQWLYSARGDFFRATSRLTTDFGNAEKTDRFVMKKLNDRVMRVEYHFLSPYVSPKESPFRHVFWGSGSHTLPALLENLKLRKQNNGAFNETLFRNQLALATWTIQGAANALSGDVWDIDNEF
The assay is described as follows: phage ELISA. The protocol: as §1
On the technique in general: In an ELISA, binding on a coated surface is turned into a signal by an enzyme label.

T1 sequence (Q62351 89-763 limits assumed): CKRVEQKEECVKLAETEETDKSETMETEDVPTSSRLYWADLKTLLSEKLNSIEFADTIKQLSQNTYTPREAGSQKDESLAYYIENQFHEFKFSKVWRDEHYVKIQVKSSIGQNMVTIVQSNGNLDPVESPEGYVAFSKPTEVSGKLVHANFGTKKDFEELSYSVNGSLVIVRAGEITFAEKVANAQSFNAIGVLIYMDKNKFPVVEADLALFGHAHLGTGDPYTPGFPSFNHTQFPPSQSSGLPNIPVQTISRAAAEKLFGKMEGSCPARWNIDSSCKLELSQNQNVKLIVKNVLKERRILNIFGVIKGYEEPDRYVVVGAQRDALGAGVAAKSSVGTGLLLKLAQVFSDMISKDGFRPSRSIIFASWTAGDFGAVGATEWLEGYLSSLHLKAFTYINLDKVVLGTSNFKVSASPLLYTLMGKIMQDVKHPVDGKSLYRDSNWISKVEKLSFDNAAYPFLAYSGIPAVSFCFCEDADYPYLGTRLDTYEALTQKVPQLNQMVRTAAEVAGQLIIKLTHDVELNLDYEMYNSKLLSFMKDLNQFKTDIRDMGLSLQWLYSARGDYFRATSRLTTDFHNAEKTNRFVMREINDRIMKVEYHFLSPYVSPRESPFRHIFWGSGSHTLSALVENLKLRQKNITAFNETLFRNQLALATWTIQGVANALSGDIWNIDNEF

B1: Clone 22 (VNAR)
VNAR: ARVDQTPQTITKETGESLTINCVLRDSNCALSNLYWYRKKSGSTNEESISLGGRYVETVNSGSKSFSLRINDLTVEDSGTYRCNVQQQSSGTFYDVYGGGTAVTVNA
notes: VNAR on phage
For the molecule B1, the binding result with recombinant mouse TfR-1 and in the assay with recombinant human TfR-1 was “binds” each time.

B2: Clone 13 (VNAR)
VNAR: ARVDQTPQTITKQTGESLTINCVLRDSNCALSSTYWYRKKSGSTNEESISLGGRYVETVNSGSKSFSLRINDLTVEDSGTYRCNVRRLQAWGSCRGGDVYGGGTVVTVNA
notes: VNAR on phage
Turning to B2, the binding result with recombinant mouse TfR-1 and with recombinant human TfR-1 was “binds” throughout.

B3: Clone 10 (VNAR)
VNAR: ARVDQTPQTITKETGESLTINCVLRDSNCALSNLYWYRKKSGSTNEESISLGGRYVETVNSGSKSFSLRINDLTVEDSGTYRCNVVQYPTAKCRQVDVYGGGTAVTVNA
notes: VNAR on phage
With B3, the binding result in the assay with recombinant mouse TfR-1 and with recombinant human TfR-1 was “binds” throughout.

B4: Clone 20 (VNAR)
VNAR: ARVDQTPRSVTKETGESLTINCVLRDSNCALPSTYWYRKKSGSTNEESISKGGRYVETVNSGSKSFSLRINDLTVKDSGTYRCNVKWDCRYQCICVSADVYGDGTAVTVNA
notes: VNAR on phage
Turning to B4, the binding result with recombinant mouse TfR-1 and with recombinant human TfR-1 was “binds” each time.

B5: Clone 25 (VNAR)
VNAR: ARVDQTPRSVTKETGESLTINCVLRDSICALSSTYWYRKKSGSTNEESISKGGRYVETVNSGSKSFSLKINDLTVEDSGTYRCNVFTEMRGRCWAWGVDVYGDGTAVTVNA
notes: VNAR on phage
Regarding B5, the binding result with recombinant mouse TfR-1 and with recombinant human TfR-1 was “binds” each time.

B6: Clone 15 (VNAR)
VNAR: ARVDQTPRSVTKETGESLTINCVLRDASYELGSTCWYRKKSGSTNEESISKGGRYVETVNSGSKSFSLRINDLTVEDGGTYRCGAPRWQMGGQWCDGGTAACRSGMAEVAACGDGTAVTVNA
notes: VNAR on phage
As for B6, the binding result with recombinant mouse TfR-1 and with recombinant human TfR-1 was “binds” in each case.

B7: Clone 21 (VNAR)
VNAR: ARVDQTPRVTKETGESLTINCVLRDNNCALSTTYWYRKKSGSTNEENISKGGRYVETVNSGSKSFSLRINDLTVEDSGTYRCNVYMTACSNDMDVYGGGTVVTVNA
notes: VNAR on phage
As to B7, the binding result with recombinant mouse TfR-1 and with recombinant human TfR-1 was “binds” in each case.

B8: Clone 39 (VNAR)
VNAR: ARVDQTPQTITKETGESLTINCVLRDSNCELSSTYWYRKKSGSTNEESISLGGRYVETVNSGSKSFSLRINDLTVEDSGTYRCNVQSAMLMLCLSRFDVYGGGTAVTVNA
notes: VNAR on phage
Take B8: the binding result with recombinant mouse TfR-1 is given as “no binding”.

B9: Clone 29 (VNAR)
VNAR: ARVDQTPQTITKETGESLTINCVLRDSNCALSSTLWYRTKSGSRNEESISKGGRYVETVNSGSKSFSLRINDLTVEDSGTYRCNVQQGCESYNWMVDVYGGGTAVTVNA
notes: VNAR on phage
Regarding B9, the binding result with recombinant mouse TfR-1 and with recombinant human TfR-1 was “binds” throughout.

B10: Clone 28 (VNAR)
VNAR: ARVDQTPQTITKETGESLTINCVLRDSICALSSTHWYRKKSGSTNEESISKGGRYVETVNSGSKSFSLRINDLTVEDSGTYRCNVRTAQGTLCGDVSDVYGDGTAVTVNA
notes: VNAR on phage
In the case of B10, the binding result with recombinant mouse TfR-1 and with recombinant human TfR-1 was “binds” each time.

B11: Clone 40 (VNAR)
VNAR: ARVDQTPQTITKETGESLTINCVLRDSNCALSSTYWYRKKSGSTNEESISKGGRYVETVNSGSKSFSLRINDLTVEDSGTYRCKVVQFEKDCQGLLRQTNDVYGGGTVVTVNA
notes: VNAR on phage
In the case of B11, in the assay with recombinant mouse TfR-1, the binding result is on record as “no binding”.

B12: Clone 23 (VNAR)
VNAR: ARVDQTPQTVTKETGESLTINCVLRDSNCDLSRTYWYRKKSGSTNEESISKGGRYVETVNSGSKSFSLRINDLTVEDSGTYRCNVGGDLCGDQRDVYGGGTAVTVNA
notes: VNAR on phage
Regarding B12, the binding result in the assay with recombinant mouse TfR-1 and with recombinant human TfR-1 was “binds” in each case.

B13: Clone 27 (VNAR)
VNAR: ARVDQTPRSVTKETGESLTINCVLRDASYALGSTCWYRKKSGSTNEESISKGGRYVETVNSGSKSFSLRINDLTVEDSGTYRCNVSRIGQYLCQARSDVYGDGTAVTVNA
notes: VNAR on phage
For B13, the binding result with recombinant mouse TfR-1 and with recombinant human TfR-1 was “binds” throughout.

B14: Clone 30 (VNAR)
VNAR: ARVDQTPQTITKETGESLTINCVLRDSNCALSSTLWYRTKSGSRNEESISKGGRYVETVNSGSKSFSLKINDLTVEDSGTYRCNVWFADYYWFQYDVYGGGTAVTVNA
notes: VNAR on phage
On to B14, for which the binding result in the assay with recombinant mouse TfR-1 and with recombinant human TfR-1 was “binds” in each case.

B15: Clone 24 (VNAR)
VNAR: ARVDQTPQTITKETGESLTINCVLRDSNCALPSTYWYRKKSGSTNEESISKGGRYVETVNSGSKSFSLRINDLTVKDSGTYRCKVGPRCMGPNWQSYSCDVYGGGTVVTVNA
notes: VNAR on phage
For the molecule B15, the binding result in the assay with recombinant mouse TfR-1 and with recombinant human TfR-1 was “binds” throughout.

B16: Clone 31 (VNAR)
VNAR: ARVDQTPQTITKETGESLTINCVLRDSNCALSSTYWYRKKSDSTNEENISKGGRYVETVNSGSKSFSLKINDLTVEDSGTYRCNVQPLFCDLWLDVYGGGTVVTVNA
notes: VNAR on phage
In the case of B16, the binding result with recombinant mouse TfR-1 and with recombinant human TfR-1 was “binds” in each case.

B17: Clone 16 (VNAR)
VNAR: ARVDQTPQTITKETGESLTINCVLRDSNCALSSTYWYRKKSGSTNEENISKGGRYVETVNSGSKSFSLRINDLTVEDSGTYRCKVQSAQGMGLNGCKPGRVDVYGDGTAVTVNA
notes: VNAR on phage
Take B17: the binding result with recombinant mouse TfR-1 and with recombinant human TfR-1 was “binds” throughout.

B18: Clone 1 (VNAR)
VNAR: ARVDQTPQTITKETGESLTINCVLRDNNCALSTTYWYRKKSGSTNEESISLGGRYVETVNSGSKSFSLRINDLTVEDSGTYRCNVSDVVSCDDGWNWLDVYGGGTAVTVNA
notes: VNAR on phage
Take B18: the binding result with recombinant mouse TfR-1 and with recombinant human TfR-1 was “binds” throughout.

B19: Clone 19 (VNAR)
VNAR: ARVDQTPQTITKETGESLTINCVLRDSNCALSSTYWYRKKSGSTNEESISKGGRYVETVNSGSKSFSLRINDLTVEDSGTYRCNVGQAQRLRSNVDDVYGGGTVVTVNA
notes: VNAR on phage
As for B19, the binding result in the assay with recombinant mouse TfR-1 and with recombinant human TfR-1 was “binds” throughout.

B20: Clone 14 (VNAR)
VNAR: ARVDQTPQTITKETGESLTINCVLRDSNCALPSTYWYRKKSGSTNEESISKGGRYVETVNSGSKSFSLRINDLTVKDSGTYRCNVMVFQVSGDYSRLEDVYGGGTVVTVNA
notes: VNAR on phage
As to B20, the binding result in the assay with recombinant mouse TfR-1 and with recombinant human TfR-1 was “binds” throughout.

B21: Clone 11 (VNAR)
VNAR: ARVDQTPQTITKETGESLTINCVLRDSNCALPSTYWYRKKSGSTNEESISKGGRYVETVNSGSKSFSLRINDLTVEDSGTYRCNVQWLWSFSCLPCVEDVYGGGTVVTVNA
notes: VNAR on phage
As for B21, the binding result with recombinant mouse TfR-1 and with recombinant human TfR-1 was “binds” throughout.

B22: Clone 12 (VNAR)
VNAR: ARVDQTPRSVTKETGESLTINCVLRDASYELGSTCWYRKKSGSTNEESISKGGRYVETVNSGSKSFSLRINDLTVEDGGTYRCGAWSRLSSSWGCDVGLQCMGCWDLWAACGDGTAVTVNA
notes: VNAR on phage
As to B22, the binding result with recombinant mouse TfR-1 and with recombinant human TfR-1 was “binds” throughout.

B23: Clone 2 (VNAR)
VNAR: ARVDQTPQTITKETGESLTINCVLRDSNCELSSTYWYRKKSDSTNEASISKGGRYVETVNSGSKSFSLKINDLTVEDSGTYRCNVFTSDSYDLGDVYGGGTVVTVNA
notes: VNAR on phage
As for B23, the binding result in the assay with recombinant mouse TfR-1 and with recombinant human TfR-1 was “binds” each time.

B24: Clone 26 (VNAR)
VNAR: ARVDQTPQTITKETGESLTINCVLRDSNCALSSTLWYRTKSGSRNEESISKGGRYVETVNSGSKSFSLKINDLTVEDSGTYRCNVCMGVTCNHVPDVYGGGTVVTVNA
notes: VNAR on phage
Consider B24, for which the binding result with recombinant mouse TfR-1 and with recombinant human TfR-1 was “binds” throughout.

B25: Clone 17 (VNAR)
VNAR: ARVDQTPQTITKETGESLTINCVLRDSNCALSNLYWYRKKSGSTNEESISLGGRYVETVNSGSKSFSLRINDITVEDSGRYRCNVYNFFTYQCRWFQSDVYGDGTAVTVNA
notes: VNAR on phage
With B25, the binding result with recombinant mouse TfR-1 and in the assay with recombinant human TfR-1 was “binds” throughout.

B26: Clone 3 (VNAR)
VNAR: ARVDQTPQTITKETGESLTINCVLRDSNCALPSTYWYRKKSGSTNEESISKGGRYVETVNSGSKSFSLRINDLTVKDSGTYRCNVVQEPYSCKGRDDVYGGGTAVTVNA
notes: VNAR on phage
Take B26: the binding result in the assay with recombinant mouse TfR-1 and with recombinant human TfR-1 was “binds” throughout.

B27: Clone 18 (VNAR)
VNAR: ARVDQTPQTITKETGESLTINCVLRDSNCALSSTYWYRKKSDSTNEESISKGGRYVETVNSGSKSFSLRINDLTVEDSGTYRCKVCTGMSCPCLGRRQTDVYGGGTAVTVNA
notes: VNAR on phage
In the case of B27, the binding result with recombinant mouse TfR-1 and with recombinant human TfR-1 was “binds” each time.

Source of the values: patent US20210395381A1 (OSSIANIX, published 2021).
